According to PMC5496915, “Interactions between LHX3- and ISL1-family LIM-homeodomain transcription factors are conserved in Caenorhabditis elegans” (Scientific Reports, 2017):

Biological target: T1, CEH-14_(LIM1+2) as it stands in the tethered CEH-14–LIM-7 complex (C. elegans, UniProt P20271 42-168)
T1 construct: CEH-14, C. elegans, tandem LIM domains LIM1+2, residues 42-168; Joined on one chain with m29 through an 11-residue Gly/Ser linker; the whole chain is m27; also called LIM domains from CEH-14
T1 sequence (looked up): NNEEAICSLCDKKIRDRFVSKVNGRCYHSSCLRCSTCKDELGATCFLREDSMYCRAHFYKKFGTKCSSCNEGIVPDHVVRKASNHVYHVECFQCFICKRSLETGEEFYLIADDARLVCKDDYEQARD
Test: SAXS; tethered complex on one chain, 5.2 mg/mL, 50 mM Tris, 100 mM NaCl, 5 mM TCEP pH 8.0 (the legend says 20 mM Tris pH 8.0, 150 mM NaCl, 1 mM TCEP), 10 °C; low-resolution shape restoration
Details: both partners purified

B1: LIM-7LID as it stands in the tethered CEH-14–LIM-7 complex (domain or fragment, C. elegans)
chain: GIGPLMVQPATPHIDNTLGGPIDIQHFAQW
notes: Joined on one chain with m28 through an 11-residue Gly/Ser linker; the whole chain is m27; also called LID from LIM-7
B1: binds.
